Like-named read-outs stand apart in the source and are kept apart here.
Tests used:
[1] = biological target: GST-PfPV1 (wheat germ cell-free expression) (Plasmodium falciparum 3D7); test: SPR; […] (amine coupling), […]; Biacore X100, single-cycle kinetics, 1:1; HBS-EP+ (10 mM HEPES pH 7.4, 150 mM NaCl, 3 mM EDTA, 0.05% P20)
[2] = biological target: GST-PfPV1 (wheat germ cell-free expression) (Plasmodium falciparum 3D7); test: as above; remark: listed apart in the source

Work on GST-EXP2 (natural protein) yielded a Kd [1] of 110 nM, a koff [1] of 0.000989 s⁻¹ and a kon [1] of 9030 M⁻¹ s⁻¹.
Substance GST-HSP101 (natural protein) has a Kd [1] of 10.5 nM, a koff [1] of 0.000914 s⁻¹ and a kon [1] of 87000 M⁻¹ s⁻¹.
Substance GST-PTEX150 (natural protein) has a Kd [1] of 54.5 nM, a koff [1] of 0.00204 s⁻¹ and a kon [1] of 37300 M⁻¹ s⁻¹. For the same substance, the Kd [2] was 54.6 nM.
